Reference: article PMC4161341 (PLoS ONE, 2014)
Numbering of substitutions follows the chain as printed.

B1: L1-H2 (VHH)
VHH: EVQLQASGGGLVQAGGSLRLSCAASGRTLSTGVMGWFRQLPGKEREFVARITWIAGSSLYADSVKGRFTISRDNTNNTVYLQMNALKPEDTAVYYCAANLAGNSWPYKTPMDYDSWGQGTQVTVSS
notes: llama sdAb of the L1-H2 family; also called sdAb L1-H2
B2: L1-C5 (VHH)
VHH: EVQLQASGGGLVQAGGSLRLSCIASGRAFSTTNMGWFRQAPGKEREFVTRVNWSGGVTSYADSVKGRFTLSRDYTKNTVYLQMNSLKPEDTAVYYCAGSTVWSTDRAHYNYWGQGTQVTVSS
notes: llama sdAb of the L1-H7 family; has a single N to Y substitution in framework 3 not seen in other members of the family; also called sdAb L1-C5
B3: L1-H7 (VHH)
VHH: B2 VHH with Y74N, Q114R
notes: llama sdAb of the L1-H7 family; also called sdAb L1-H7
B4: L1-E6 (VHH)
VHH: B2 VHH with S63P, Y74N, R106G
notes: llama sdAb of the L1-H7 family; also called sdAb L1-E6
B5: L1-G2+ (VHH)
VHH: B2 VHH with I23T, T49C, L70C, Y74N, N84D, A107K
notes: also called disulfide mutant of L1-G2
B6: L1-G2 (VHH)
VHH: B2 VHH with I23T, Y74N, N84D, A107K
notes: llama sdAb of the L1-H7 family; also called sdAb L1-G2
B7: L1-E2 (VHH)
VHH: EVQLQASGGGLVQPGGSLRLSCAASGFSISSATMSWVRQAPGKGLEWVSTVQDGAGIISSADSAKARFTISRDSAKNTLYLQMNSLKPEDTAVYYCRTVVFGRILRGQGTQVTVSS
notes: llama sdAb, only member of the L1-E2 family; also called sdAb L1-E2

What follows are binders tested against T1, Vaccinia Virus, Western Reserve, L1R Protein with C-Terminal Histidine Tag (Vaccinia virus, strain Western Reserve, UniProt P07612) (assay: SPR; […] (10 µg/ml, […], dissociation 600 s; […]). Conditions: both partners purified.
T1 construct: also called L1 antigen; recombinant L1 antigen; source: obtained through BEI Resources (NR-2625), recombinant from baculovirus
Work on B1 yielded a Kd of 1.8 nM, a koff of 0.0021 s⁻¹ and a kon of 1.2e+06 M⁻¹ s⁻¹.
Work on B2 yielded a Kd of 4 nM, a koff of 0.032 s⁻¹ and a kon of 7.2e+06 M⁻¹ s⁻¹.
B3 was tested, and the Kd was 1.5 nM, the koff was 0.00087 s⁻¹ and the kon was 560000 M⁻¹ s⁻¹.
For B4, the Kd was 2.6 nM, the koff was 0.001 s⁻¹ and the kon was 390000 M⁻¹ s⁻¹.
B5 was tested, and the Kd was 1 nM, the koff was 0.0021 s⁻¹ and the kon was 2.1e+06 M⁻¹ s⁻¹.
B6 gave a Kd of 1.9 nM, a koff of 0.001 s⁻¹ and a kon of 530000 M⁻¹ s⁻¹.
For B7, the Kd was 0.7 nM, the koff was 0.0045 s⁻¹ and the kon was 6.5e+06 M⁻¹ s⁻¹.
